Measured values: article doi:10.1101/2024.02.21.581285 (bioRxiv, 2024)

Biological target: the molecule itself
Assay: cryo-EM structure

B1: D. melanogaster copia Gag protein (natural protein)
chain: not shown
stoichiometry N: 540 monomers
